Patent US20040248790A1, “Novel secretory proteins and dna thereof” (priority 2001, published 2004)
Where no end group is shown, it is not given here.

Assays:
Assay type in all cases: cell-based
mock CHO cells [1] = assay: Intracellular calcium ion change (FLIPR) in mock CHO cells (control); details: mock CHO cells as the control
AQ27 [2] = target: T1, AQ27 (Homo sapiens, UniProt Q96P65); assay: CRE-luciferase reporter gene assay in HEK 293 cells transiently expressing AQ27 receptor; set-up: expressed in transfected cells; host or cells: HEK 293 cells, transient, vector pAKKO-111H, co-transfected with pCRE-Luc; details: pCRE-Luc reporter, peptide 10, 1 and 0.1 μM in Example 9, 4 hours
T1 sequence (Q96P65 1-431): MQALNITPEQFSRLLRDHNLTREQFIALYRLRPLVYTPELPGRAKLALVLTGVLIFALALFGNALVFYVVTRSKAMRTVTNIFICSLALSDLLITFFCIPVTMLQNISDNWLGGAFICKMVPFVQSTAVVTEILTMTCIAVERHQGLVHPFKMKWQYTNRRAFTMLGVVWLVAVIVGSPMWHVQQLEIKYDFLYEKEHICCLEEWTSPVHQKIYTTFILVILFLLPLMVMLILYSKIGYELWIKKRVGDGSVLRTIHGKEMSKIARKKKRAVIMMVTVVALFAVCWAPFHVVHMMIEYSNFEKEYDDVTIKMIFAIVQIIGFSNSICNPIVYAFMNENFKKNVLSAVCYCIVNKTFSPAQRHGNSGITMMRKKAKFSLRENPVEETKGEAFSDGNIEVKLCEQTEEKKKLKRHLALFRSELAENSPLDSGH
From the text: (§1) The specific stimulating activity of novel polypeptides F synthesized in Example 8 on AQ27 receptor (SEQ ID NO: 31) and human OT7T022 receptor (SEQ ID NO: 35) was detected by using, as an indicator, the amount of a reporter gene product (luciferase) produced by induction of expression of a cAMP response element (CRE) promoter.
The HEK 293 cells were suspended in a growth medium (DMEM [Dulbecco's Modified Eagle Medium] (Gibco BRL) containing 10% fetal bovine serum (Gibco BRL)), and plated at a density of 1×10^5 cells/well on a black 96-well plate (Becton Dickinson Company, Ltd.) coated with collagen. After the cells were cultured overnight at 37° C. in 5% CO2, the cells were transfected in the following manner with a reporter gene-containing plasmid pCRE-Luc (Clontech) and simultaneously with an expression vector plasmid prepared by inserting AQ27 gene (SEQ ID NO: 32) and human OT7T022 gene (SEQ ID NO: 36) by a known method into an animal cell expression vector pAKKO-111H (the same plasmid vector as pAKKO-1.11H described in Biochem. Biophys. Acta, Hinuma, S. et al., 1219, 251-259, 1994) or with the intact pAKKO-111H not containing AQ27 gene.
OPTI-MEM-I (Gibco BRL) and Lipofectamine™ 2000 Reagent (Gibco BRL) were mixed in a ratio of 24:1 to prepare a Lipofectamine dilution. Separately, OPTI-MEM-I, AQ27 expression vector plasmid or the intact vector plasmid (240 ng/μl) and pCRE-Luc (240 ng/μl) were mixed in a ratio of 24:0.9:0.1 to prepare a DNA dilution. The Lipofectamine dilution and the DNA dilution were mixed in equal amounts and left for 20 minutes at room temperature, to form a DNA/Lipofectamine complex, and 25 μl of the complex was added to the plate where the HEK 293 cells were cultured, and the cells were further cultured overnight at 37° C. in 5% CO2.
(§2) The HEK 293 cells thus transfected were washed with an assay medium (DMEM containing 0.1% bovine serum albumin), and then each of novel polypeptides F synthesized in Example 8, diluted with the assay buffer, was added at concentrations of 10, 1 and 0.1 μM respectively to the cells which were then cultured at 37° C. in 5% CO2 for 4 hours. The culture supernatant was discarded, and 50 μl Pikka Gene LT2.0 (Toyo Ink Mfg. Co., Ltd.), that is, a substrate for measurement of luciferase activity, was added thereto, and the fluorescence of luciferase was measured with a plate reader (ARVO sx multilabel counter, Wallac).
First, full-length human novel secretory protein F gene (SEQ ID NO: 24) was introduced in a usual manner into an expression vector […]. […] The AQ27-specific activity was detected by using an indicator the amount of the reporter gene product (luciferase) produced by induction with expression of cAMP response element (CRE) promoter.

mock CHO cells [3] = assay: cAMP production-suppressing activity in mock CHO cells (control); details: mock CHO cells as the control; forskolin
Protocol: (§3) AQ27-expressing CHO cells (FIG. 24) established by a method known per se and mock CHO cells (FIG. 25) serving as a control were plated on a 96-well plate (Becton Dickinson Company, Ltd.) at a density of 4×10^4 cells/well and cultured overnight. The assay buffer used was a buffer prepared by adding 0.1% bovine serum albumin and 0.2 mM 3-isobutyl-1-methylxanthine to a Hanks' balanced salt solution. The cells were washed twice with the assay buffer and pre-incubated at 37° C. for 30 minutes. The cells were washed again twice with the assay buffer, and a sample prepared in the assay buffer was added thereto, and the cells were incubated at 37° C. for 30 minutes. To evaluate the cAMP production-suppressing activity, a sample composed exclusively of 2 μM forskolin (FSK, Wako Pure Chemical Industries, Ltd.) promoting production of cAMP and a sample containing 2 μM FSK and 10^−7 to 10^−5 M novel polypeptide F: Arg-Lys-Lys-Gly-Gly-Phe-Ser-Phe-Arg-Phe-NH2 (positions 124 to 133 in SEQ ID NO: 23) were compared. A supernatant of the cells was discarded, and the amount of cAMP produced in the cells was measured by cAMP Screen System (Applied Biosystems).

AQ27 [4] = target: T1, AQ27; assay: cAMP production-suppressing activity in AQ27-expressing CHO cells; set-up: expressed in transfected cells; host or cells: CHO cells; details: 2 μM forskolin; for cAMP production induced by FSK in AQ27-expressing CHO: 30 minutes at 37° C., 10^−7 to 10^−5 M peptide in Example 12
Protocol: as §3

AQ27 [5] = target: T1, AQ27; assay: Intracellular calcium ion release (FLIPR) in AQ27-expressing CHO cells; set-up: expressed in transfected cells; host or cells: CHO cells; details: for peptide concentration at which intracellular calcium ion mobilizing activity was recognized in CHO-AQ27: AQ27-expressing CHO cells; for activity in promoting intracellular calcium ion release in AQ27-expressing CHO cells: peptide 10 μM and 1 μM compared with absence of the sample, Fluo 3-AM
Protocol: AQ27-expressing CHO cells established by a method known per se were plated on a 96-well black culture plate (Costar) at a density of 4×10^4 cells/well and cultured overnight. The assay buffer used was a buffer prepared by adding 20 mM HEPES, pH 7.4 (Dojin Kagaku) and 2.5 mM probenecid (Sigma) to a Hanks' balanced salt solution (HBSS). The medium for the cells were removed, and a solution prepared by adding 4 μM Fluo 3-AM (Dojindo) and 0.04% pluronic acid (Molecular Probes) to the assay buffer was added thereto and incubated at 37° C. for 1 hour. The cells were washed with the assay buffer to remove an excess of Fluo 3 and set in FLIPR (Molecular Devices). A sample dissolved in the assay buffer was also set in FLIPR, and the sample was added to the cells by a built-in manipulator, and a change in fluorescence depending on the concentration of intracellular calcium ions generated by irradiation with an excitation light was measured. As a result, the reactions shown in FIGS. 26 and 27 were detected respectively in the presence of novel peptide F: Arg-Lys-Lys-Gly-Gly-Phe-Ser-Phe-Arg-Phe-NH2 (positions 124 to 133 (RKKGGFSFRF—NH2) in SEQ ID NO: 23) and novel polypeptide F: Gly-Gly-Phe-Ser-Phe-Arg-Phe-NH2 (positions 127 to 133 (GGFSFRF—NH2) in SEQ ID NO: 23) in an amount of 10 μM (▴) and 1 μM (□), as compared with the absence of the sample (◯), and the activity of each peptide in promoting intracellular calcium ion release in the AQ27-expressing CHO cells was detected.

human OT7T022 receptor = target: T2, human OT7T022 receptor (Homo sapiens, UniProt Q9GZQ6); assay: CRE-luciferase reporter gene assay in HEK 293 cells transiently expressing OT7T022 receptor; details: HEK 293 cells transiently expressing human OT7T022 receptor; pCRE-Luc reporter; peptide 10, 1 and 0.1 μM in Example 9
T2 construct: expressed in transfected cells; host or cells: HEK 293 cells, transient, vector pAKKO-111H, co-transfected with pCRE-Luc
From the text: as §1
The HEK 293 cells were suspended in a growth medium (DMEM [Dulbecco's Modified Eagle Medium] (Gibco BRL) containing 10% fetal bovine serum (Gibco BRL)), and plated at a density of 1×10^5 cells/well on a black 96-well plate (Becton Dickinson Company, Ltd.) coated with collagen. […]
as §2

T2 sequence (Q9GZQ6 whole entry): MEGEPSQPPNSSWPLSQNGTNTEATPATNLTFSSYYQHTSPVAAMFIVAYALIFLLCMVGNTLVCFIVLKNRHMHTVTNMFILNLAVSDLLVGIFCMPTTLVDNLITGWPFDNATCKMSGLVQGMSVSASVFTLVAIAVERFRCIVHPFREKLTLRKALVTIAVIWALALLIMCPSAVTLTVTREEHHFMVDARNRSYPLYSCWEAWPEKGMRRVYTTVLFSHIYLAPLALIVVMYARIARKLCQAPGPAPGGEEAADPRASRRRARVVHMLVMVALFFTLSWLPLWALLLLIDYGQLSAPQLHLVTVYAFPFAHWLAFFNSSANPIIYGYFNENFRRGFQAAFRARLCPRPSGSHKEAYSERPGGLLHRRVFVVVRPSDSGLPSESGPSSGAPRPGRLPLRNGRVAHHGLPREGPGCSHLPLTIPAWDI

| activity of luciferase stimulated by adding forskolin (FSK), AQ27 receptor (AQ27 [2]) | cAMP production induced by FSK in AQ27-expressing CHO (AQ27 [4]) | peptide concentration at which intracellular calcium ion mobilizing activity was recognized in CHO-AQ27 (AQ27 [5]) | peptide concentration at which FSK-induced cAMP production was suppressed in AQ27-expressing CHO (AQ27 [4]; AQ27-expressing CHO cells) | activity of luciferase stimulated by adding FSK, human OT7T022 receptor (human OT7T022 receptor) | activity in promoting intracellular calcium ion release in AQ27-expressing CHO cells (AQ27 [5]) | Substance | intracellular calcium ion mobilizing activity in mock CHO cells (mock CHO cells [1]) | cAMP production-suppressing activity in mock CHO cells (mock CHO cells [3]) |
| --- | --- | --- | --- | --- | --- | --- | --- | --- |
| increase in luciferase activity | suppressed | at least 10^−8 M | – | – | – | Pyr-Asp-Glu-Gly-Ser-Glu-Ala-Thr-Gly-Phe-Leu-Pro-Ala-Ala-Gly-Glu-Lys-Thr-Ser-Gly-Pro-Leu -Gly-Asn-Leu-Ala-Glu-Glu-Leu-Asn-Gly-Tyr-Ser-Arg-Lys-Lys-Gly-Gly-Phe-Ser-Phe Arg-Phe-NH2 (QDEGSEATGFLPAAGEKTSGPLGNLAEELNGYSRKKGGFSFRF; N-terminal pyroglutamate, C-terminal amide; Human) [Pyr1-F43-NH2] | not recognized | not recognized |
| increase in luciferase activity | – | – | – | – | – | Thr-Ser-Gly-Pro-Leu-Gly-Asn-Leu-Ala-Glu-Glu-Leu-Asn-Gly-Tyr-Ser-Arg-Lys-Lys-Gly-Gly-Phe-Ser-Phe Arg-Phe-NH2 (TSGPLGNLAEELNGYSRKKGGFSFRF-NH2) [T1-F26-NH2] | – | – |

More lines, now with the values behind:

| Substance | activity of luciferase stimulated by adding forskolin (FSK), AQ27 receptor (AQ27 [2]) | cAMP production induced by FSK in AQ27-expressing CHO (AQ27 [4]) | peptide concentration at which intracellular calcium ion mobilizing activity was recognized in CHO-AQ27 (AQ27 [5]) | peptide concentration at which FSK-induced cAMP production was suppressed in AQ27-expressing CHO (AQ27 [4]; AQ27-expressing CHO cells) | activity of luciferase stimulated by adding FSK, human OT7T022 receptor (human OT7T022 receptor) | activity in promoting intracellular calcium ion release in AQ27-expressing CHO cells (AQ27 [5]) | intracellular calcium ion mobilizing activity in mock CHO cells (mock CHO cells [1]) | cAMP production-suppressing activity in mock CHO cells (mock CHO cells [3]) |
| --- | --- | --- | --- | --- | --- | --- | --- | --- |
| Ala-Ser-Gln-Pro-Gln-Ala-Leu-Leu-Val-Ile-Ala-Arg-Gly-Leu-Gln-Thr-Ser-Gly-Arg-Glu-His-Ala-Gly-Cys-Arg-Phe-NH2 (ASQPQALLVIARGLQTSGREHAGCRF-NH2) [A1-F28-NH2] | increase in luciferase activity | – | at least 10^−6 M | at least 10 M | – | – | not recognized | not recognized |
| Arg-Lys-Lys-Gly-Gly-Phe-Ser-Phe-Arg-Phe-NH2 (RKKGGFSFRF-NH2) | increasing the luciferase activity | suppressed | – | – | suppressing the luciferase activity | detected | – | – |
| Gly-Gly-Phe-Ser-Phe-Arg-Phe-NH2 (GGFSFRF-NH2) | – | – | – | – | – | detected | – | – |
